For experiment [1], the system named is Ngn3+ endocrine progenitor cells. Kind of experiment: Ngn3+ cells in embryonic pancreas explants (E12.5) cultured in vitro. In kind it is cell-based, mouse. The settings on record: for number of CK19+ epithelial cells: E12.5 explants with mAb vs control Ab. The procedure:
Isolation and culture of embryonic pancreas explants. The isolation and culture of embryonic pancreas explants was performed as described elsewhere, with minor modifications.
Processing of pancreatic tissue for immunofluorescence microscopy. The pancreatic tissues were isolated and fixed either overnight (adult pancreases), or for one hour (embryonic pancreas explants), in 2% PFA (pH 7.4), followed by a two-step saturation process: first in a 30% sucrose solution in PBS and then in optimal cutting temperature (OCT) compound. After complete saturation, the tissues were imbedded in OCT using Cryomold and then snap frozen in an ethanol/dry ice bath. The OCT blocks were serially cut through the entire organ to obtain representative sections every 600 μm (6 to 8 sections per adult pancreas), 50 μm (12 to 14 sections per E16.5 embryonic pancreas), 35 μm (10 to 12 sections per E14.5 embryonic pancreas), or 15 μm (10 to 12 sections per E12.5 embryonic pancreas cultured for 1 to 3 days). For the embryonic linage tracing experiments, three largest sections were taken for the analysis. For all other experiments involving immunofluorescence microscopy, all obtained sections were analyzed. […]
The sections from the pancreases of embryos at age E14.5 and E16.5, and newborn pups (OP), were stained with anti-Ngn3 antibody to determine the total number of endocrine progenitors cells for all sections per explant combined (FIG. 9G, FIG. 17A). Alternatively, the sections representing the pancreases of embryos at age E12.5 (which are considerably smaller) were stained with both anti-Ngn3 and anti-CK19 antibodies to determine the fraction of CK19-positive area that was occupied by Ngn3− positive staining (FIGS. 9D, 10A, 10C, 12D, 12G, 12J and FIGS. 15A, 20B). The following formula was used to adjust for any differences in the pancreas size: (Ngn3^+ cell number/μm^2 of CK19^+ cells)×10^5.
Image analysis. Embryonic images were processed with a plugin-Trainable Weka Segmentation v3.2.28 (Hamilton, New Zealand) for ImageJ v.1.52jv software. To classify and quantify the images in unbiased fashion, we defined the following four classes for the analysis: Ngn3^+ cells, the clusters of cytokeratin 19^+ cells, the negatively stained areas, and background (e.g., the area outside of tissue sample). Alternatively, the Visiopharm version 6.0 software (Visiopharm, Hoerholm, Denmark) with Author module was used to create applications to outline Ngn3^+ cells or double positive cells expressing YFP and insulin using preprocessing and postprocessing steps, when necessary. In addition, the Engine module of the Visiophram module was used to execute created applications and unbiasedly analyze the images. For the unbiased quantitative analysis of β-cells and islets in the whole pancreatic sections, Visiopharm Author module was trained to recognize insulin-positive β-cell clusters with diameter greater than 50 μm as well as negatively stained section area. In all studies involving microscopy the treatment assignments were blinded to investigators who performed data analysis.

The next experiment has as its system catL. The settings on record: previously shown by the applicant; cited from earlier work.

B1: B29: mouse monoclonal antibody to serpin B13, clone B29; heavy chain SEQ ID NO:14, kappa light chain SEQ ID NO:16 (antibody, V domains shown)
VH: QIQLVQSGPELKKPGETVKISCKASGYTFTTYGMSWVKQAPGKGLKWMGWINTYSGMPTYADDFKGRFAFSLETSATTAYLQINNLKNEDTATYFCARPLLGLDYWGQGTTLTVSS
VL: DIVMTQTPLSLSVTIGQPASISCKSSQSLLHSDGKTFLNWFLQRPGQSPKLLIYLVSKLESGIPDRFSGSGSGTDFTLKISRVEVEDLGVYYCLQHTHFPLTFGAGTKLEIK
B1: the “Ngn3+ cell population, upregulation by mAb” value in experiment [1] (CatL-deficient embryonic pancreas explants, 48-hour culture) is “completely refractory to upregulation”. The “number of CK19+ epithelial cells” value in experiment [1] was “remained unchanged”; in experiment [1] (listed as mAb), “did not change”. Further, the “number of Ngn3+ cells” value in experiment [1] (E12.5 explants, antibody at 1 μg/mL vs control Ab) is “significant increase”. For the same molecule, in the experiment on catL, the “inhibitory properties of serpinB13” value is given as “blocked”.

The record behind these values is patent publication US12441811B2, “Compositions and methods for treating serpin B13 disorders” (REGENTS OF THE UNIVERSITY OF MINNESOTA, priority 2019, dated 2025).
